Assay: endo-type α-(1-4)L-fucosidase activity (HPLC of PA-labeled substrate)
Format: biochemical, Fucus vesiculosus
Conditions: endo-type α-(1-4)L-fucosidase activity after each purification step, Table 14
Method: The sulfated fucan oligosaccharide 1-(4) as described in Example 2 was used to establish a system for measuring an endo-type α-(1-4)L-fucosidase activity. First, the sulfated fucan oligosaccharide 1-(4) was fluorescently labeled at the reducing end with 2-aminopyridine according to the method as described in Example 2-(4). The endo-type α-(1-4)L-fucosidase activity was measured as follows.
Briefly, 75 μl of 100 mM sodium phosphate buffer (pH 7.0), 7.5 μl of a bovine serum albumin solution (2 mg/ml), 3.75 μl of 4 M sodium chloride, 50.25 μl of water, 6 μl of the sulfated fucan oligosaccharide 1-(4) fluorescently labeled at the reducing end with 2-aminopyridine (10 pmol/μl) and 7.5 μl of an endo-type α-(1-4)L-fucosidase solution were mixed together. After reacting at 30° C. for 3 hours, the reaction mixture was treated at 100° C. for 10 minutes and analyzed using HPLC. As controls, a reaction mixture obtained by a reaction in which the solvent for the endo-type α-(1-4)L-fucosidase was used in place of the enzyme solution and a reaction mixture obtained by a reaction in which water was used in place of the substrate were similarly analyzed. […]

Substance: Hydroxyapatite
- Specific activity: 10.6 mU/mg
- Total activity: 219 mU

Source: patent US20050255564A1, “Sulfated fucan” (TAKARA BIO INC, priority 2002, published 2005)
